Measurements as given in article PMC2115704 (The Journal of Cell Biology, 1989).

Target: the molecule itself
Assay: SDS-PAGE in the absence of reductant

B1: platelet thrombospondin (natural protein)
chain: not shown
modifications: iodinated (residues not stated)
  stoichiometry N: 3
